The supplement of paper PMC7877785
± gives the uncertainty stated by the source.

Assay: self-splicing fitness, log relative to wild type (ln ratio); higher = more splicing; Tetrahymena group I intron in knt gene, E. coli kanamycin selection, DiMSum; sequences stand for … in CUCUCU…GGAGGGAAAAGUUAUCAGGCAUGCACCUGGUAGCUAGUCUUUAAACCAAUAGAUUGCAUCGGUUUAAAAGGCAAGACCGUCAAAUUGCGGGAAAGGGGUCAACAGCCGUUCAGUACCAAGUCUCAGGGGAAACUUUGAGAUGGCCUUGCAAAGGGUAUGGUAAUAAGCUGACGGACAUGGUCCUAACCACGCAGCCAAGUCCUAAGUCAACAGAUCUUCUGUUGAUAUGGAUGCAGUUCACAGACUAAAUGUCGGUCGGGGAAGAUGUAUUCUUCUCAUAAGAUAUAGUCGGACCUCUCCUUAAUGGGAGCUAGCGGAUGAAGUGAUGCAACACUGGAGCCGCUGGGAACUAAUUUGUAUGCGAAAGUAUAUUGAUUAGUUUUGGAGUACUCGUGGUCG
Procedure, shortened: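 Pooled colonies went to amplicon sequencing on an Illumina HiSeq 2500 after six replicate transformations. The plates were LB agar with 100 μg/mL carbenicillin, 50 μM IPTG and 0.2% rhamnose, with or without 25 μg/mL kanamycin, incubated overnight at 37°C or 30°C. The E. coli BL21(DE3) library had all eight P1ex-region intron nucleotides randomised, the intron placed in the knt kanamycin-resistance gene on pET-22b(+). DiMSum fitness is the error-weighted combination of replicate fold changes, kanamycin against none, normalised to wild type.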

Row | Sequence | self-splicing fitness (ln) (30 °C) | self-splicing fitness (ln) (37 °C)
1 | AAGCAGCAAUAUUACGAUCU | -0.0506 ± 0.075 | 0.801 ± 0.09
2 | AAGCAGCAAUAUUACGCAUU | -2.49 ± 0.12 | -1.23 ± 0.12
3 | AAGCAGCAAUAUUACGCCGC | – | -2.37 ± 0.45
4 | AAGCAGCAAUAUUACGGCUA | -0.14 ± 0.066 | 0.0975 ± 0.086
5 | AAGCAGCAAUAUUACGGUGG | -3.64 ± 0.18 | -1.98 ± 0.17
6 | AAGCAGCAAUAUUACGUAAC | -2.67 ± 0.11 | -1.94 ± 0.14
7 | AAGCAGCAAUAUUACGUGCA | -0.892 ± 0.065 | -0.453 ± 0.084
8 | AAGCAGCAAUAUUACGUUCG | -1.98 ± 0.089 | -0.509 ± 0.1
9 | AAGCAGCAAUAUUACGUUGG | -3.77 ± 0.17 | -1.45 ± 0.11
10 | AAGGAGCAAUAUUACGAAAG | -2.93 ± 0.21 | –
11 | AAGGAGCAAUAUUACGACCG | -2.16 ± 0.29 | –
12 | AAGGAGCAAUAUUACGACUG | -1.75 ± 0.16 | -1.05 ± 0.18
13 | AAGGAGCAAUAUUACGACUU | -1.12 ± 0.086 | -1.26 ± 0.1
14 | AAGGAGCAAUAUUACGAGGA | -3.21 ± 0.46 | -1.95 ± 0.38
15 | AAGGAGCAAUAUUACGAUUA | – | -1.96 ± 0.28
16 | AAGGAGCAAUAUUACGCCUA | -1.21 ± 0.15 | -1.35 ± 0.14
17 | AAGGAGCAAUAUUACGCCUG | -2.1 ± 0.28 | -0.484 ± 0.44
18 | AAGGAGCAAUAUUACGCGAC | -2.44 ± 0.41 | -1.54 ± 0.35
19 | AAGGAGCAAUAUUACGCUUA | -1.49 ± 0.17 | -1.1 ± 0.16
20 | AAGGAGCAAUAUUACGGCAC | -1.23 ± 0.47 | -1.62 ± 0.46
21 | AAGGAGCAAUAUUACGGGGC | -3.81 ± 0.22 | -2.34 ± 0.16
22 | AAGGAGCAAUAUUACGGUCG | -2.96 ± 0.22 | –
23 | AAGGAGCAAUAUUACGUAUC | – | -2.8 ± 0.44
24 | AAGGAGCAAUAUUACGUCCA | -1.29 ± 0.16 | -0.459 ± 0.16
25 | AAGGAGCAAUAUUACGUCCC | 0.0851 ± 0.15 | -1.06 ± 0.23

Row | Sequence | self-splicing fitness (ln) (30 °C) | self-splicing fitness (ln) (37 °C)
26 | AAGGAGCAAUAUUACGUCGA | -1.74 ± 0.2 | -1.89 ± 0.2
27 | AAGGAGCAAUAUUACGUCGG | -3.13 ± 0.19 | -2.74 ± 0.33
28 | AAGGAGCAAUAUUACGUCGU | -2.73 ± 0.11 | -0.982 ± 0.12
29 | AAGUAGCAAUAUUACGAAAU | -2.3 ± 0.2 | -0.59 ± 0.18
30 | AAGUAGCAAUAUUACGACGC | -0.792 ± 0.12 | 0.204 ± 0.14
31 | AAGUAGCAAUAUUACGAGGC | -3.44 ± 0.29 | –
32 | AAGUAGCAAUAUUACGAUAA | -1.36 ± 0.12 | -1.09 ± 0.13
33 | AAGUAGCAAUAUUACGAUUA | -0.56 ± 0.1 | -0.688 ± 0.08
34 | AAGUAGCAAUAUUACGAUUC | -0.923 ± 0.12 | -0.577 ± 0.15
35 | AAGUAGCAAUAUUACGCACA | -0.522 ± 0.088 | -0.00649 ± 0.14
36 | AAGUAGCAAUAUUACGCACG | -1.5 ± 0.13 | 0.587 ± 0.13
37 | AAGUAGCAAUAUUACGCGGA | -2.09 ± 0.18 | -1.04 ± 0.15
38 | AAGUAGCAAUAUUACGCGUC | -1.96 ± 0.12 | -2 ± 0.19
39 | AAGUAGCAAUAUUACGCUUA | -0.794 ± 0.14 | -0.587 ± 0.14
40 | AAGUAGCAAUAUUACGGCGG | -2.56 ± 0.17 | -0.842 ± 0.15
41 | AAGUAGCAAUAUUACGGGAA | -2.74 ± 0.2 | -2.8 ± 0.23
42 | AAGUAGCAAUAUUACGGGCA | -1.25 ± 0.088 | -0.149 ± 0.098
43 | AAGUAGCAAUAUUACGGUAG | -2.85 ± 0.22 | -2.72 ± 0.2
44 | AAGUAGCAAUAUUACGGUCA | -0.974 ± 0.094 | -0.354 ± 0.1
45 | AAGUAGCAAUAUUACGGUUG | -2.78 ± 0.1 | -2.16 ± 0.11
46 | AAGUAGCAAUAUUACGUAGC | -3.25 ± 0.33 | -2.3 ± 0.31
47 | AAGUAGCAAUAUUACGUAUC | -2.36 ± 0.14 | -1.15 ± 0.11
48 | AAGUAGCAAUAUUACGUGAG | -1.57 ± 0.048 | -0.575 ± 0.066
49 | AAGUAGCAAUAUUACGUGGC | -2.22 ± 0.18 | -3.29 ± 0.39
50 | AAGUAGCAAUAUUACGUGGG | -3.49 ± 0.2 | -3.24 ± 0.23

Row | Sequence | self-splicing fitness (ln) (30 °C) | self-splicing fitness (ln) (37 °C)
51 | AAGUAGCAAUAUUACGUUUC | -3.93 ± 0.33 | -2.03 ± 0.21
52 | AAGUAGCAAUAUUACGUUUG | -2.41 ± 0.13 | -1.49 ± 0.13
53 | AAUAAGCAAUAUUACGAAGU | -3.44 ± 0.18 | -1.94 ± 0.17
54 | AAUAAGCAAUAUUACGAAUA | -1.54 ± 0.13 | -1.62 ± 0.15
55 | AAUAAGCAAUAUUACGACUU | -0.182 ± 0.065 | 0.451 ± 0.094
56 | AAUAAGCAAUAUUACGAGUA | -1.67 ± 0.19 | -0.925 ± 0.16
57 | AAUAAGCAAUAUUACGAUAU | -1.71 ± 0.11 | -0.747 ± 0.13
58 | AAUAAGCAAUAUUACGAUGU | -0.62 ± 0.076 | -0.682 ± 0.11
59 | AAUAAGCAAUAUUACGCCCC | 0.198 ± 0.2 | -0.311 ± 0.24
60 | AAUAAGCAAUAUUACGCCCG | -1.39 ± 0.15 | -0.203 ± 0.18
61 | AAUAAGCAAUAUUACGCCGU | -1.24 ± 0.11 | -0.293 ± 0.11
62 | AAUAAGCAAUAUUACGCCUA | 0.0474 ± 0.09 | -0.183 ± 0.098
63 | AAUAAGCAAUAUUACGCGUA | -1.25 ± 0.14 | -0.929 ± 0.13
64 | AAUAAGCAAUAUUACGCUAC | -3.62 ± 0.34 | -1.82 ± 0.23
65 | AAUAAGCAAUAUUACGCUAU | -2.74 ± 0.16 | -2.24 ± 0.18
66 | AAUAAGCAAUAUUACGCUGG | -1.81 ± 0.17 | -1.5 ± 0.21
67 | AAUAAGCAAUAUUACGGACU | -0.768 ± 0.071 | 0.349 ± 0.1
68 | AAUAAGCAAUAUUACGGAUG | -2.21 ± 0.1 | -1.39 ± 0.1
69 | AAUAAGCAAUAUUACGGCAG | -0.454 ± 0.11 | -0.547 ± 0.16
70 | AAUAAGCAAUAUUACGGCUC | -0.468 ± 0.13 | 0.129 ± 0.15
71 | AAUAAGCAAUAUUACGGGGG | -2.91 ± 0.19 | -2.75 ± 0.21
72 | AAUAAGCAAUAUUACGGUCA | -0.268 ± 0.084 | 0.155 ± 0.12
73 | AAUAAGCAAUAUUACGGUGC | -3 ± 0.15 | -2.26 ± 0.23
74 | AAUAAGCAAUAUUACGGUGG | -4.07 ± 0.17 | -2.31 ± 0.13
75 | AAUAAGCAAUAUUACGUACG | -0.966 ± 0.14 | -0.239 ± 0.17

Row | Sequence | self-splicing fitness (ln) (30 °C) | self-splicing fitness (ln) (37 °C)
76 | AAUAAGCAAUAUUACGUAGC | – | -2.38 ± 0.27
77 | AAUAAGCAAUAUUACGUCGC | -2.48 ± 0.16 | -1.21 ± 0.14
78 | AAUAAGCAAUAUUACGUGCU | -1.8 ± 0.074 | -1.29 ± 0.08
79 | AAUAAGCAAUAUUACGUGGG | -3 ± 0.13 | -2.75 ± 0.17
80 | AAUCAGCAAUAUUACGAAAA | -1.45 ± 0.092 | -0.169 ± 0.1
81 | AAUCAGCAAUAUUACGAACA | -0.526 ± 0.12 | -0.161 ± 0.13
82 | AAUCAGCAAUAUUACGAACU | -0.125 ± 0.05 | 0.389 ± 0.077
83 | AAUCAGCAAUAUUACGACCG | -0.959 ± 0.098 | -0.795 ± 0.11
84 | AAUCAGCAAUAUUACGAUUA | -0.229 ± 0.088 | -0.426 ± 0.088
85 | AAUCAGCAAUAUUACGAUUU | -1.8 ± 0.076 | -0.714 ± 0.086
86 | AAUCAGCAAUAUUACGCAAA | -0.0279 ± 0.067 | -0.117 ± 0.078
87 | AAUCAGCAAUAUUACGCAGA | -1.04 ± 0.068 | -0.32 ± 0.07
88 | AAUCAGCAAUAUUACGCAUA | -0.272 ± 0.085 | -0.142 ± 0.13
89 | AAUCAGCAAUAUUACGCCAG | -0.398 ± 0.16 | -1.58 ± 0.17
90 | AAUCAGCAAUAUUACGCUAG | -0.729 ± 0.066 | 0.121 ± 0.09
91 | AAUCAGCAAUAUUACGGAAU | -0.646 ± 0.065 | -0.35 ± 0.075
92 | AAUCAGCAAUAUUACGUCCA | -0.876 ± 0.1 | -0.0432 ± 0.12
93 | AAUCAGCAAUAUUACGUGAA | -0.152 ± 0.065 | 0.257 ± 0.094
94 | AAUCAGCAAUAUUACGUUUC | -2.83 ± 0.14 | -1.2 ± 0.13
95 | AAUGAGCAAUAUUACGAAAG | – | -3.18 ± 0.4
96 | AAUGAGCAAUAUUACGAAUA | -3.37 ± 0.39 | -2 ± 0.32
97 | AAUGAGCAAUAUUACGACAG | -3.71 ± 0.29 | -1.85 ± 0.26
98 | AAUGAGCAAUAUUACGACAU | -1.33 ± 0.014 | -0.714 ± 0.033
